# From patent US8187838B2, “β-Galactoside-α2, 6-sialyltransferase, a gene encoding thereof, and a method for producing thereof” (Japan Tobacco Inc., priority 2006, dated 2012)
# Experiment: Sialic acid transfer reaction using various glycosyl acceptor substrates (monosaccharides, disaccharides, trisaccharide)
# Assay type: biochemical
# Conditions: for Sialyltransferase activity: pH 5.0, 30° C., 500 mM NaCl
# Description: Cell homogenates prepared from E. coli cells into which JT-ISH-224-derived N1C0 had been introduced and from Photobacterium damselae strain JT0160 were each purified by ion exchange chromatography and hydroxyapatite chromatography to give an electrophoretically single band. The thus purified β-galactoside-α2,6-sialyltransferases were used in the following experiment in order to examine the presence or absence of sialyltransferase activity toward various monosaccharides, disaccharides and trisaccharides.
# A reaction solution (24 μl) was prepared to contain CMP-^14C-NeuAc-containing CMP-NeuAc as a glycosyl donor substrate (10.9 nmol (8485 cpm), final concentration in the reaction solution: 0.455 mM), any of various glycosyl acceptor substrates dissolved in 20 mM cacodylate buffer (pH 5.0) (1 μmol, final concentration in the reaction solution: 42 mM), sialyltransferase (3.0 mU for JT-ISH-224-derived N1C0, 4.3 mU for JT0160) and NaCl (final concentration in the reaction solution: 500 mM), and reacted at 30° C. for 2 minutes or 60 minutes. The monosaccharides used as glycosyl acceptor substrates were the following 8 types: methyl-α-D-galactopyranoside (Gal-α-OMe), methyl-β-D-galactopyranoside (Gal-β-OMe), methyl-α-D-glucopyranoside (Glc-α-OMe), methyl-β-D-glucopyranoside (Glc-β-OMe), methyl-α-D-mannopyranoside (Man-α-OMe), methyl-β-D-mannopyranoside (Man-β-OMe), N-acetylgalactosamine ([…]), and N-acetylglucosamine ([…]). The disaccharides used were the following 5 types: lactose (Gal-β1,4-Glc), N-acetyllactosamine (Gal-β1,4-GlcNAc), methyl-β-D-galactopyranosyl-β1,3-N-acetylglucosaminide (Gal-β1,3-GlcNAc-β-OMe), methyl-α-D-galactopyranosyl-α1,3-galactopyranoside (Gal-α1,3-Gal-α-OMe), and methyl-β-D-galactopyranosyl-β1,3-galactopyranoside (Gal-β1,3-Gal-β-OMe). The trisaccharide used was 2′-fucosyllactose (Fuc-α1,2-Galβ1,4-Glc). It should be noted that the final concentration was set to 8.4 mM for the sugar chains shown in Table 4-2, i.e., methyl-α-D-galactopyranosyl-α1,3-[…] (Gal-α1,3-Gal-α-OMe), methyl-β-D-galactopyranosyl-β1,3-galactosaminide (Gal-β1,3-Gal-β-OMe) and 2′-fucosyllactose (Fuc-α1,2-Galβ1,4-Glc).
# After completion of the enzymatic reaction, 1.98 ml of 5 mM phosphate buffer (pH 6.8) was added to the reaction solution to stop the enzymatic reaction. Then, the enzymatic reaction solution was diluted with 5 mM phosphate buffer (Ph 6.8) and applied in a volume of 2 ml to a AG1-×2Resin (PO4^3− form, 0.2×2 cm) column. This column was prepared as follows: AG1-×2Resin (OH^− form, BIO-RAD) was suspended in 1 M phosphate buffer (pH 6.8), and after 30 minutes, the resin was washed with distilled water and then suspended in distilled water. The eluate (0 to 2 ml) from this column was measured for its radioactivity. The eluate from this column contains the unreacted glycosyl acceptor substrate and the ^14C-NeuAc (N-acetylneuraminic acid)-bound reaction product which was generated by the reaction, whereas unreacted CMP-^14C-NeuAc is still retained on the column. Thus, the radioactivity of ^14C from each sialic acid-containing sugar chain generated as a result of the enzymatic reaction arises exclusively from the reaction product, so that the radioactivity of this fraction can be used to calculate the enzyme activity.
# In the manner described above, the radioactivity of NeuAc transferred to each glycosyl acceptor substrate was measured to calculate the amount of transferred sialic acid.
molecule,measurement,setting,value
"ISH224-N1C0 (protein, listed as Photobacterium sp.) MSEENTQSIIKNDINKTIIDEEYVNLEPINQSNISFTKHSWVQTCGTQQLLTEQNKESISLSVVAPRLDDDEKYCFDFNGVSNKGEKYITKVTLNVVAPSLEVYVDHASLPTLQQLMDIIKSEEENPTAQRYIAWGRIVPTDEQMKELNITSFALINNHTPADLVQEIVKQAQTKHRLNVKLSSNTAHSFDNLVPILKELNSFNNVTVTNIDLYDDGSAEYVNLYNWRDTLNKTDNLKIGKDYLEDVINGINEDTSNTGTSSVYNWQKLYPANYHFLRKDYLTLEPSLHELRDYIGDSLKQMQWDGFKKFNSKQQELFLSIVNFDKQKLQNEYNSSNLPNFVFTGTTVWAGNHEREYYAKQQINVINNAINESSPHYLGNSYDLFFKGHPGGGIINTLIMQNYPSMVDIPSKISFEVLMMTDMLPDAVAGIASSLYFTIPAEKIKFIVFTSTETITDRETALRSPLVQVMIKLGIVKEENVLFWADLPNCETGVCIAV",acceptor substrate specificity compared to the known JT0160 enzyme (in words),"14 monosaccharides, disaccharides and trisaccharide",wider range of acceptor substrate specificity
same,Sialyltransferase activity Relative activity (%),"acceptor 2′-Fucosyllactose (Fuc-α1,2-Galβ1,4-Glc), 8.4 mM, lactose = 100",92.1%
same,Sialyltransferase activity,"acceptor 2′-Fucosyllactose (Fuc-α1,2-Galβ1,4-Glc), 8.4 mM",1.316 nmol/min
same,Sialyltransferase activity,"acceptor Lactose (Galβ1,4-Glc), 42 mM, Table 4-1",1.875 nmol/min
same,Sialyltransferase activity Relative activity (%),"acceptor Lactose (Galβ1,4-Glc), 42 mM, Table 4-1, set to 100",100.0%
same,Sialyltransferase activity,"acceptor Lactose (Galβ1,4-Glc), series of Table 4-2 (other acceptors 8.4 mM)",1.428 nmol/min
same,Sialyltransferase activity Relative activity (%),"acceptor Lactose (Galβ1,4-Glc), series of Table 4-2, set to 100",100.0%
same,Sialyltransferase activity Relative activity (%),"acceptor Methylαgalactopyranoside (Galα-OMe), 42 mM, lactose = 100",2.0%
same,Sialyltransferase activity,"acceptor Methylαgalactopyranoside (Galα-OMe), 42 mM",0.038 nmol/min
same,Sialyltransferase activity Relative activity (%),"acceptor Methylαgalactopyranosyl α1,3-galactopyranoside (Galα1,3-Galα-OMe), 8.4 mM, lactose = 100",1.6%
same,Sialyltransferase activity,"acceptor Methylαgalactopyranosyl α1,3-galactopyranoside (Galα1,3-Galα-OMe), 8.4 mM",0.023 nmol/min
same,Sialyltransferase activity Relative activity (%),"acceptor Methylαglucopyranoside (Glcα-OMe), 42 mM, lactose = 100",0.4%
same,Sialyltransferase activity,"acceptor Methylαglucopyranoside (Glcα-OMe), 42 mM",0.008 nmol/min
same,Sialyltransferase activity Relative activity (%),"acceptor Methylαmannopyranoside (Manα-OMe), 42 mM, lactose = 100",0.5%
same,Sialyltransferase activity,"acceptor Methylαmannopyranoside (Manα-OMe), 42 mM",0.010 nmol/min
same,Sialyltransferase activity Relative activity (%),"acceptor Methylβ-galactopyranosylβ1,3-N-acetylglucosaminide (Galβ1,3-GlcNAcβ-OMe), 42 mM, lactose = 100",76.5%
same,Sialyltransferase activity,"acceptor Methylβ-galactopyranosylβ1,3-N-acetylglucosaminide (Galβ1,3-GlcNAcβ-OMe), 42 mM",1.435 nmol/min
same,Sialyltransferase activity Relative activity (%),"acceptor Methylβgalactopyranoside (Galβ-OMe), 42 mM, lactose = 100",59.2%
same,Sialyltransferase activity,"acceptor Methylβgalactopyranoside (Galβ-OMe), 42 mM",1.110 nmol/min
same,Sialyltransferase activity Relative activity (%),"acceptor Methylβgalactopyranosyl β1,3-galactopyranoside (Galβ1,3-Galβ-OMe), 8.4 mM, lactose = 100",67.5%
same,Sialyltransferase activity,"acceptor Methylβgalactopyranosyl β1,3-galactopyranoside (Galβ1,3-Galβ-OMe), 8.4 mM",0.964 nmol/min
same,Sialyltransferase activity Relative activity (%),"acceptor Methylβglucopyranoside (Glcβ-OMe), 42 mM, lactose = 100",0.5%
same,Sialyltransferase activity,"acceptor Methylβglucopyranoside (Glcβ-OMe), 42 mM",0.009 nmol/min
same,Sialyltransferase activity Relative activity (%),"acceptor Methylβmannopyranoside (Manβ-OMe), 42 mM, lactose = 100",0.4%
same,Sialyltransferase activity,"acceptor Methylβmannopyranoside (Manβ-OMe), 42 mM",0.008 nmol/min
same,Sialyltransferase activity Relative activity (%),"acceptor N-Acetylgalactosamine (GalNAc), 42 mM, lactose = 100",12.2%
same,Sialyltransferase activity,"acceptor N-Acetylgalactosamine (GalNAc), 42 mM",0.228 nmol/min
same,Sialyltransferase activity Relative activity (%),"acceptor N-Acetylglucosamine (GlcNAc), 42 mM, lactose = 100",0.4%
same,Sialyltransferase activity,"acceptor N-Acetylglucosamine (GlcNAc), 42 mM",0.008 nmol/min
same,Sialyltransferase activity Relative activity (%),"acceptor N-Acetyllactosamine (Gatβ1,4-GlcNAc), 42 mM, lactose = 100",99.3%
same,Sialyltransferase activity,"acceptor N-Acetyllactosamine (Gatβ1,4-GlcNAc), 42 mM",1.861 nmol/min
